{"source": "paper PMC7774078", "proteins": {"B1": {"name": "multidrug resistance-associated protein 4 (MRP4) (Homo sapiens) (protein)", "chain": "MLPVYQEVKPNPLQDANLCSRVFFWWLNPLFKIGHKRRLEEDDMYSVLPEDRSQHLGEELQGFWDKEVLRAENDAQKPSLTRAIIKCYWKSYLVLGIFTLIEESAKVIQPIFLGKIINYFENYDPMDSVALNTAYAYATVLTFCTLILAILHHLYFYHVQCAGMRLRVAMCHMIYRKALRLSNMAMGKTTTGQIVNLLSNDVNKFDQVTVFLHFLWAGPLQAIAVTALLWMEIGISCLAGMAVLIILLPLQSCFGKLFSSLRSKTATFTDARIRTMNEVITGIRIIKMYAWEKSFSNLITNLRKKEISKILRSSCLRGMNLASFFSASKIIVFVTFTTYVLLGSVITASRVFVAVTLYGAVRLTVTLFFPSAIERVSEAIVSIRRIQTFLLLDEISQRNRQLPSDGKKMVHVQDFTAFWDKASETPTLQGLSFTVRPGELLAVVGPVGAGKSSLLSAVLGELAPSHGLVSVHGRIAYVSQQPWVFSGTLRSNILFGKKYEKERYEKVIKACALKKDLQLLEDGDLTVIGDRGTTLSGGQKARVNLARAVYQDADIYLLDDPLSAVDAEVSRHLFELCICQILHEKITILVTHQLQYLKAASQILILKDGKMVQKGTYTEFLKSGIDFGSLLKKDNEESEQPPVPGTPTLRNRTFSESSVWSQQSSRPSLKDGALESQDTENVPVTLSEENRSEGKVGFQAYKNYFRAGAHWIVFIFLILLNTAAQVAYVLQDWWLSYWANKQSMLNVTVNGGGNVTEKLDLNWYLGIYSGLTVATVLFGIARSLLVFYVLVNSSQTLHNKMFESILKAPVLFFDRNPIGRILNRFSKDIGHLDDLLPLTFLDFIQTLLQVVGVVSVAVAVIPWIAIPLVPLGIIFIFLRRYFLETSRDVKRLESTTRSPVFSHLSSSLQGLWTIRAYKAEERCQELFDAHQDLHSEAWFLFLTTSRWFAVRLDAICAMFVIIVAFGSLILAKTLDAGQVGLALSYALTLMGMFQWCVRQSAEVENMMISVERVIEYTDLEKEAPWEYQKRPPPAWPHEGVIIFDNVNFMYSPGGPLVLKHLTALIKSQEKVGIVGRTGAGKSSLISALFRLSEPEGKIWIDKILTTEIGLHDLRKKMSIIPQEPVLFTGTMRKNLDPFNEHTDEELWNALQEVQLKETIEDLPGKMDTELAESGSNFSVGQRQLVCLARAILRKNQILIIDEATANVDPRTDELIQKKIREKFAHCTVLTIAHRLNTIIDSDKIMVLDSGRLKEYDEPYVLLQNKESLFYKMVQQLGKAEAAALTETAKQVYFKRNYPHIGHTDHMVTNTSNGQPSTLTIFETAL"}}, "substrate": "NS(=O)(=O)c1cc(C(=O)O)c(NCc2ccco2)cc1Cl", "experiment": "cells, lysate or membranes", "conditions": "ATP, Mg2+", "data": [{"protein": "B1", "values": [{"measurement": "Km", "result": 27.96, "unit": "µM"}]}]}
